Among the data in the Human Domainome abundance scans (Beltran et al. 2025) are abundance fitness values, retold here.

First the molecules themselves.
B1: Nucleolar transcription factor 1, residues 408 to 469; numbered along this chain, P17480 (parent)
chain: KRPVSAMFIFSEEKRRQLQEERPELSESELTRLLARMWNDLSEKKKAKYKAREAALKAQSER

± gives the uncertainty stated by the source.

The data set covers variants of B1. Nature of the data set: abundance fitness (aPCA) (normalised: wild type 0, dead -1); higher = more abundant; growth selection in yeast, the domain comes from the species named. The settings on record: Homo sapiens.
As for KRPVSAMFIFSEEKRRQLQEERPELSESELTRLLARMWNDLSEKKKAKYKARMAALKAQSER [E53M], the abundance fitness was -0.164 ± 0.07.

On to KRPVSAMFIFSEEKRRQLQEERPELSESELTRLLARMWNDLSEKKKAKYKARHAALKAQSER [E53H], for which the abundance fitness is -0.152 ± 0.091.

With KRPVSAMFIFSEEKRRQLQEERPELSESELTRLLARMWNDLSEKKKAKYKARFAALKAQSER [E53F], the abundance fitness is -0.186 ± 0.068.

Turning to KRPVSAMFIFSEEKRRQLQEERPELSESELTRLLARMWNDLSEKKKAKYKARVAALKAQSER [E53V], the abundance fitness was -0.078 ± 0.051.

Turning to KRPVSAMFIFSEEKRRQLQEERPELSESELTRLLARMWNDLSEKKKAKYKARTAALKAQSER [E53T], the abundance fitness was -0.211 ± 0.064.

As to KRPVSAMFIFSEEKRRQLQEERPELSESELTRLLARMWNDLSEKKKAKYKARYAALKAQSER [E53Y], the abundance fitness is -0.122 ± 0.091.

As for KRPVSAMFIFSEEKRRQLQEERPELSESELTRLLARMWNDLSEKKKAKYKARWAALKAQSER [E53W], the abundance fitness was -0.133 ± 0.074.

For the variant KRPVSAMFIFSEEKRRQLQEERPELSESELTRLLARMWNDLSEKKKAKYKARQAALKAQSER [E53Q], the abundance fitness was -0.146 ± 0.074.

On to KRPVSAMFIFSEEKRRQLQEERPELSESELTRLLARMWNDLSEKKKAKYKARNAALKAQSER [E53N], for which the abundance fitness was -0.37 ± 0.36.

As for KRPVSAMFIFSEEKRRQLQEERPELSESELTRLLARMWNDLSEKKKAKYKARRAALKAQSER [E53R], the abundance fitness was -0.389 ± 0.051.

Turning to KRPVSAMFIFSEEKRRQLQEERPELSESELTRLLARMWNDLSEKKKAKYKARENALKAQSER [A54N], the abundance fitness was -0.033 ± 0.099.

With KRPVSAMFIFSEEKRRQLQEERPELSESELTRLLARMWNDLSEKKKAKYKARELALKAQSER [A54L], the abundance fitness is -0.056 ± 0.047.

As to KRPVSAMFIFSEEKRRQLQEERPELSESELTRLLARMWNDLSEKKKAKYKAREYALKAQSER [A54Y], the abundance fitness is -0.075 ± 0.075.

For the variant KRPVSAMFIFSEEKRRQLQEERPELSESELTRLLARMWNDLSEKKKAKYKAREPALKAQSER [A54P], the abundance fitness is -0.267 ± 0.075.

For the variant KRPVSAMFIFSEEKRRQLQEERPELSESELTRLLARMWNDLSEKKKAKYKAREKALKAQSER [A54K], the abundance fitness is -0.014 ± 0.054.

Regarding KRPVSAMFIFSEEKRRQLQEERPELSESELTRLLARMWNDLSEKKKAKYKAREVALKAQSER [A54V], the abundance fitness was -0.003 ± 0.052.

Take KRPVSAMFIFSEEKRRQLQEERPELSESELTRLLARMWNDLSEKKKAKYKARECALKAQSER [A54C]: the abundance fitness was -0.051 ± 0.1.

With KRPVSAMFIFSEEKRRQLQEERPELSESELTRLLARMWNDLSEKKKAKYKAREQALKAQSER [A54Q], the abundance fitness was -0.102 ± 0.068.

Regarding KRPVSAMFIFSEEKRRQLQEERPELSESELTRLLARMWNDLSEKKKAKYKAREWALKAQSER [A54W], the abundance fitness is -0.199 ± 0.059.

With KRPVSAMFIFSEEKRRQLQEERPELSESELTRLLARMWNDLSEKKKAKYKAREHALKAQSER [A54H], the abundance fitness was -0.014 ± 0.13.

Take KRPVSAMFIFSEEKRRQLQEERPELSESELTRLLARMWNDLSEKKKAKYKAREMALKAQSER [A54M]: the abundance fitness is -0.098 ± 0.084.

Take KRPVSAMFIFSEEKRRQLQEERPELSESELTRLLARMWNDLSEKKKAKYKARETALKAQSER [A54T]: the abundance fitness was -0.04 ± 0.054.

KRPVSAMFIFSEEKRRQLQEERPELSESELTRLLARMWNDLSEKKKAKYKAREDALKAQSER [A54D]: the abundance fitness was determined as 0.006 ± 0.13.

Consider KRPVSAMFIFSEEKRRQLQEERPELSESELTRLLARMWNDLSEKKKAKYKAREFALKAQSER [A54F], for which the abundance fitness was -0.181 ± 0.089.

In the case of KRPVSAMFIFSEEKRRQLQEERPELSESELTRLLARMWNDLSEKKKAKYKAREIALKAQSER [A54I], the abundance fitness was -0.142 ± 0.084.

KRPVSAMFIFSEEKRRQLQEERPELSESELTRLLARMWNDLSEKKKAKYKARESALKAQSER [A54S]: the abundance fitness is -0.071 ± 0.059.

As to KRPVSAMFIFSEEKRRQLQEERPELSESELTRLLARMWNDLSEKKKAKYKAREEALKAQSER [A54E], the abundance fitness is -0.063 ± 0.088.

Consider KRPVSAMFIFSEEKRRQLQEERPELSESELTRLLARMWNDLSEKKKAKYKARERALKAQSER [A54R], for which the abundance fitness was -0.031 ± 0.037.

Turning to KRPVSAMFIFSEEKRRQLQEERPELSESELTRLLARMWNDLSEKKKAKYYAREAALKAQSER [K50Y], the abundance fitness is -0.074 ± 0.22.

Take KRPVSAMFIFSEEKRRQLQEERPELSESELTRLLARMWNDLSEKKKAKYWAREAALKAQSER [K50W]: the abundance fitness is -0.134 ± 0.059.

KRPVSAMFIFSEEKRRQLQEERPELSESELTRLLARMWNDLSEKKKAKYKAREAFLKAQSER [A55F]: the abundance fitness came to 0.059 ± 0.17.

Take KRPVSAMFIFSEEKRRQLQEERPELSESELTRLLARMWNDLSEKKKAKYKAREAELKAQSER [A55E]: the abundance fitness came to 0.058 ± 0.073.

For KRPVSAMFIFSEEKRRQLQEERPELSESELTRLLARMWNDLSEKKKAKYKAREAPLKAQSER [A55P], the abundance fitness is -0.132 ± 0.093.

In the case of KRPVSAMFIFSEEKRRQLQEERPELSESELTRLLARMWNDLSEKKKAKYKAREAGLKAQSER [A55G], the abundance fitness is -0.046 ± 0.072.

With KRPVSAMFIFSEEKRRQLQEERPELSESELTRLLARMWNDLSEKKKAKYKAREAILKAQSER [A55I], the abundance fitness is -0.126 ± 0.1.

As to KRPVSAMFIFSEEKRRQLQEERPELSESELTRLLARMWNDLSEKKKAKYKAREAKLKAQSER [A55K], the abundance fitness is -0.054 ± 0.087.

KRPVSAMFIFSEEKRRQLQEERPELSESELTRLLARMWNDLSEKKKAKYKAREARLKAQSER [A55R]: the abundance fitness was -0.058 ± 0.061.

As for KRPVSAMFIFSEEKRRQLQEERPELSESELTRLLARMWNDLSEKKKAKYKAREAMLKAQSER [A55M], the abundance fitness is -0.047 ± 0.091.

Consider KRPVSAMFIFSEEKRRQLQEERPELSESELTRLLARMWNDLSEKKKAKYKAREASLKAQSER [A55S], for which the abundance fitness is -0.065 ± 0.056.

Turning to KRPVSAMFIFSEEKRRQLQEERPELSESELTRLLARMWNDLSEKKKAKYKAREAHLKAQSER [A55H], the abundance fitness came out at 0.003 ± 0.17.

For KRPVSAMFIFSEEKRRQLQEERPELSESELTRLLARMWNDLSEKKKAKYKAREADLKAQSER [A55D], the abundance fitness was -0.039 ± 0.12.

As for KRPVSAMFIFSEEKRRQLQEERPELSESELTRLLARMWNDLSEKKKAKYKAREACLKAQSER [A55C], the abundance fitness was -0.028 ± 0.08.

As to KRPVSAMFIFSEEKRRQLQEERPELSESELTRLLARMWNDLSEKKKAKYKAREANLKAQSER [A55N], the abundance fitness was -0.141 ± 0.18.
